In the supplement of paper PMC7125110:
± gives the standard error. This sample holds only a part of the variants without activity.

B1: glmS ribozyme (parent)
chain: AUAAAAGCGCCAGAACUACAGAAAUGUAGUUGACGAGGAGGAGGUUUAUCGAAUUUUCGGCGGAUGCCUCCAAA

Variants of: B1
Experiment: self-cleavage kobs at 2500 uM GlcN6P; higher = faster cleavage; RNA array
Conditions: with glucosamine-6-phosphate
Method in brief: (§1)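 Using a hybridised Cy3 probe at 37 °C, barcoded ribozyme variants transcribed in situ by E. coli RNA polymerase on sequenced MiSeq chips were monitored across tiles imaged over ~14 h. The flow contained glucosamine-6-phosphate from 40 μM to 10 mM in HEPES/KCl/Mg(OAc)2 buffer. Signals were normalised to baseline and to non-cleaving reference variants before per-tile medians were fit to one- or two-exponential decays to yield kobs. Weighted Michaelis–Menten fits across concentrations gave kcat and KM.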

Variant	self-cleavage kobs at 2500 uM GlcN6P
AUAAAAGCGCCAUAACUACAGAAAUGUAGUUGACGAGGAGGAGGUUUAUCGAAUGUUCGGCGGAUGACUCCAAA	8.05e-05 ± 1.9e-05 s⁻¹
AUAAAAGCGCCAAAACUACAGAAAUGUAGUUUACGAGGUGGAGGUUUAUCGAAUUUUCGGCGGAUGCCUCCAAA	4.61e-05 ± 8.8e-06 s⁻¹
AUAAAAGCGCCAAAACUACAGAAAUGUAGUUGACGAGGAGGAGGUCUAUCGAAUUUUCGACGGAUGCCUCCAAA	< 1e-05 s⁻¹
AUAAAAGCGCCAUAACUACAGAAAUGUAGUUGACGAGGAGGAGGAUUAUCGGAUUUUCGGCGGAUGCCUCCAAA	5.37e-05 ± 2.1e-05 s⁻¹
AUAAAAGCGCCAGGACUACAGAAAUGUAGUUGACGCGGAGGAGGUUUAUCGAACUUUCGGCGGAUGCCUCCAAA	< 1e-05 s⁻¹
AUAAAAGCGCCAUAACUACAGAAAUGUAGUUGACGAGGAGGAGGUUAAUCGAAUUGUCGGCGGAUGCCUCCAAA	0.000242 ± 6e-05 s⁻¹
AUAAAAGCGCCAAAACUACAGAAAUGUAGGUGACGAGGAGGAGGUUUAUCGAUUUUUCGGCGGAUGCCUCCAAA	0.000141 ± 4.4e-05 s⁻¹
AUAAAAGCGCCAGGACUACAGAAAUGUAGUUGACGGGGAGGAGGUUUAUCGAAUUGUCCGCUGAUGCCUCCAAA	< 1e-05 s⁻¹
AUAAAAGCGCCAAAACUACAGAAAUGUAGUUGAUGAGGAGGAUGUUUAUCGAAUUUUCGGCGGAUGCCUCCAAA	< 1e-05 s⁻¹
AUAAAAGCGCCAGCACUACAGAAAUGUAGUUGACGAGGAGGAGGUUUAUCGAAAAUUCGGCGGAUGCCUCCAAA	0.00221 ± 0.00054 s⁻¹
AUAAAAGCGCCACAACUACAGAAAUGUAGUUGACGAGGAGGAGGUUUAUCGAAUUUUCGGAGGAUGCCUCCAAA	< 1e-05 s⁻¹
AUAAAAGCGCCAGGACUACAGAAAUGUAGUUGACGAGGAGGAGGUUUAUCGAGUUUUCGGCGGAUACCUCCAAA	0.0162 ± 0.0057 s⁻¹
AUAAAAGCGCCAGGACUACAGAAAUGUAGUUGUCGAGGAGGACGUUUAUCGAAUUUUCGGCAGAUGCCUCCAAA	< 1e-05 s⁻¹
AUAAAAGCGCCAGCGCUACAGAAAUGUAGUUGACGAGGAGGAGGUCUAUCGAAUUUUCGGGGGAUGCCUCCAAA	< 1e-05 s⁻¹
AUAAAAGCGCCAUAACUACAGAAAUGUAGUUGACAAGGAGGAGGUUUAUCGAAUUUUCGGCGGAUGACUCCAAA	< 1e-05 s⁻¹
AUAAAAGCGCCAAAACUACAGAAAUGUAGUUGACGAGGAGGAGGUUUAUCGUACUUUCGGCGGAUGCCUCCAAA	< 1e-05 s⁻¹
AUAAAAGCGCCACACCUACAGAAAUGUAGUUGACGAGGAGGAGGUUUAUCGAAUUUUCAGCGGAUGCCUCCAAA	< 1e-05 s⁻¹
AUAAAAGCGCCAGGACUACAGAAAUGUAGUUGACGACGGGGAGGUUUAUCGAAUUUUCGGCGGAUGCCUCCAAA	6.41e-05 ± 1.9e-05 s⁻¹

Variant	self-cleavage kobs at 2500 uM GlcN6P
AUAAAAGCGCCAUAACUACAGAAAUGUAGUUGACGAGGAGGCGGUUUAUCGAAUUUUCGGCGGAUGCCUCGAAA	< 1e-05 s⁻¹
AUAAAAGCGCCACAACUACAGAAAUGUAGUUGACGAGGAGGAGGACUAUCGAAUUUUCGGCGGAUGCCUCCAAA	5.29e-05 ± 1.6e-05 s⁻¹
AUAAAAGCGCCAUAACUACAGAAAUGUAGUUGACGAGGAGGAGGUUCAUCGAAUUUUCGGCGGGUGCCUCCAAA	0.000125 ± 3.1e-05 s⁻¹
AUAAAAGCGCCACAACUACAGAAAUGUAGUAGACGAGGAGGAGGUUUAUCGAAUUUUCGGCGGGUGCCUCCAAA	9.93e-05 ± 3e-05 s⁻¹
AUAAAAGCGCCAGCACUACAGAAAUGUAGUUGACAAGGAGGAGGUUUAUCGGAUUUUCGGCGGAUGCCUCCAAA	< 1e-05 s⁻¹
AUAAAAGCGCCAGGACUACAGAAAUGUAGUUUACGAGGAGGAGGAUUAUCGAAUUUUCGGCGGAUGCCUCCAAA	0.00147 ± 0.00059 s⁻¹
AUAAAAGCGCCAAAACUACAGAAAUGUAGUUGACGAGGAGGAGGGUUAUCGAAUUUUCGGCGGGUGCCUCCAAA	6.3e-05 ± 1.9e-05 s⁻¹
AUAAAAGCGCCAGGACUACAGAAAUGUAGUUGACUAAGAGGAGGUUUAUCGAAUUUUCGGCGGAUGCCUCCAAA	< 1e-05 s⁻¹
AUAAAAGCGCCAUAACUACAGAAAUGUAGUCGACGAGGAGGAGGUUUAUCGAAUUUUCGGCGGAUGCCUUCAAA	0.000186 ± 4.5e-05 s⁻¹
AUAAAAGCGCCAUAACUACAGAAAUGUAGUUGACGAUGAGGAGGUUUAUCGAAUGUUCGGCGGAUUCCUCCAAA	< 1e-05 s⁻¹
AUAAAAGCGCCAAAACUACAGAAAUGUAGUUGACGAGGAGGAGGUUUAUCCAAUUUUCGGCGGAUGGCUCCAAA	< 1e-05 s⁻¹
AUAAAAGCGCCACAACUACAGAAAUGUAUUUGACGAGGAGGAGGUUUAUAGAAUUCUCGGCCGAUGCCACCAAA	0.000141 ± 5.2e-05 s⁻¹
AUAAAAGCGCCAGCAUUACAGAAAUGUAGUUGACGAGGACGAGAUUUAUCGAAUUUUCGACGGAUGCCUCCAAA	< 1e-05 s⁻¹
AUAAAAGCGCCAGGUCUACAGAAAUGUAGUGGACGAGGAGGAUGAUUAUCGAAUUUUCGGCGGAUGCCUCCAAA	< 1e-05 s⁻¹
AUAAAAGCGCCACAACUACAGAAAUGUAGUUGACGAGGAGGAGGUUUAUCGAAUUUUGAGCGGAUGCCUCCAAA	< 1e-05 s⁻¹
AUAAAAGCGCCACACCUACAGAAAUGUAGUUUACGAGGAGGAGAUUUAUCGAAUUUUCUGCGGAUGCCUCCAAA	< 1e-05 s⁻¹
AUAAAAGCGCCAGCACUACAGAAAUGUAGUUGACGAGGUGGAUGUUUAUCGAAUUUUCGGCGGUUGCCUCCAAA	< 1e-05 s⁻¹

Variants of: B1
Experiment: self-cleavage kobs at 10000 uM GlcN6P; higher = faster cleavage; RNA array
Conditions: with glucosamine-6-phosphate
Method in brief: as §1

Variant	self-cleavage kobs at 10000 uM GlcN6P
AUAAAAGCGCCAUAACUACAGAAAUGUAGUUGACGAGGAGGAGGUUAAUCGAAUUGUCGGCGGAUGCCUCCAAA	0.000374 ± 6.2e-05 s⁻¹
AUAAAAGCGCCAUAACUACAGAAAUGUAGUCGACGAGGAGGAGGUUUAUCGAAUUUUCGGCGGAUGCCUUCAAA	0.000187 ± 3.2e-05 s⁻¹
